The nature of the series: soluble on expression in E. coli; label from the status in PepcDB or PDB records.
Take “MGSDKIHHHHHHMASSSEGVSVLEIECKVVTPMFSRGAAEPKWENGNRVYPFELRPQSIKGVLRFWFRAIAPTVIDIYSLEGLENLSKKEKERWEKEKYKGLKYLEGLIFGSQERKSSFSLEVKVEGESQALGKYMNNRFSFTDDRLKDTKYALYGLYDKSGIYEYLQEGKNFIIILQTANDSIKGIILSLLKLVSTFSGFGAKTRKGFGEFEIVDPKLTRNDYNLVISECQEHIREFVNHHNSSSKVKIKLGRTNFNGIPDFPCFCDYKIFEITKFSGNSPLEVLREVFKVGRNFKGWYPSLKQKMRFSEGDCVKDLVEALEGLLKGRKTEKKIEIPTAVVGLPIQYQNLGRGEIRRLKVIVSSSLRGLGIDDIDGRKASPLFLSVHEGERGKWKLVVLLMRSRVTNDGELITEVKGGKTPSSGIKTIVKEEKDYKNLLEWIKKLGGKEIQGG”: the “soluble on expression in E. coli” value was “not soluble”.
As for “MAKTLYEKLFDAHVVYEAQNETPLLYIDRHLVHEVTSPQAFDGLRAHGRQVRQPGKTFATMDHNVSTQTKDINASGEMARIQMQELIKNCKEFGVELYDLNHPYQGIVHVMGPEQGVTLPGMTIVCGDS”, the “soluble on expression in E. coli” value was “not soluble”.
The value for “MGSDKIHHHHHHATKTEQIPVNKTYAACPQNWIGVENKCFYFSEYPSNWTFAQAFCMAQEAQLARFDNQDELNFLMRYKANFDSWIGLHRESSEHPWKWTDNTEYNNTIPIRGEERFAYLNNNGISSTRIYSLRMWICSKL” was “not soluble”.
Under “MAHHHHHHMPRSEKQSEEDDWELHPLFLSKIPNKKDINKNQALSALITLINEEEEKEVFSYEPRRKNLKKKITEKGQIIYKKDRRNFYEPYQQNKNDKINYFEKKTLGGHSDVSKEEEVMDVEVDEEGTPLTAAQQGGDHSGQNVSSSQQATDETSIGEVLVCLSMINLK” stands “not soluble”; under “MSAITAPLPTLDDLATLTLSIKAWGRELGFQEVGISGLDLAEHEQHLQRWLDAGYHGEMDYMAAHGSKRSHPDELVPGTLRVVSLRMDYLPGDTEMAQRLTEPEKAYVSRYALGRDYHKLIRKRLQQLAERIQQAIGPFGFRAFVDSAPVLEKAIAEQAGLGWIGKNTLVLNRKAGSFFFLGELFVDIPLPVDAPHATEHCGRCTACLDICPTAAFVGPYVLDARRCISYLTIELKTAIPEELRPLIGNRVFGCDDCQIVCPWNRFARPTDQSDFQPRHNLDNAGLAELFLWDEEKFLGSTEGSPLRRAGYERWLRNLAVGLGNAPSTIPVIEALQARRDYPSELVREHVEWALQRHGVAPL”, “not soluble”; under “MSNPLFPTESAALTLDGPVGPLDVAVDLPEPDVAVQPVTAIVCHPLSTEGGSMHNKVVTMAARALRELGITVVRFNFRSVGTSAGSFDHGDGEQDDLRAVAEWVRAQRPTDTLWLAGFSFGAYVSLRAAAALEPQVLISIAPPAGRWDFSDVQPPAQWLVIQGDADEIVDPQAVYDWLETLEQQPTLVRMPDTSHFFHRKLIDLRGALQHGVRRWLPATP”, “soluble”.
Under “MRLTEEEVQALLEKADGWKLADERWIVKKYRFQDYLQGIEFVRRIAAISENANHHPFISIDYKLITVKLSSWRAKGLTKLDFDLAKQYDEVYNQMKQGEGE” stands “soluble”; under “MTLTPEASKSVAQPPTQAPLTQEEAIASLGRYGYGWADSDVAGANAQRGLSEAVVRDISAKKNEPDWMLQSRLKALRIFDRKPIPKWGSNLDGIDFDNIKYFVRSTEKQAASWDDLPEDIRNTYDRLGIPEAEKQRLVAGVAAQYESEVVYHQIREDLEAQGVIFLDTDTGLREHPDIFKEYFGTVIPAGDNKFSALNTAVWSGGSFIYVPPGVHVDIPLQAYFRINTENMGQFERTLIIADEGSYVHYVEGCLPAGELITTADGDLRPIESIRVGDFVTGHDGRPHRVTAVQVRDLDGELFTFTPMSPANAFSVTAEHPLLAIPRDEVRVMRKERNGWKAEVNSTKLRSAEPRWIAAKDVAEGDFLIYPKPKPIPHRTVLPLEFARLAGYYLAEGHACLTNGCESLIFSFHSDEFEYVEDVRQACKSLYEKSGSVLIEEHKHSARVTVYTKAGYAAMRDNVGIGSSNKKLSDLLMRQDETFLRELVDAYVNGDGNVTRRNGAVWKRVHTTSRLWAFQLQSILARLGHYATVELRRPGGPGVIMGRNVVRKDIYQVQWTEGGRGPKQARDCGDYFAVPIKKRAVREAHEPVYNLDVENPDSYLAYGFAVHNCTAPIYKSDSLHSAVVEIIVKPHARVRYTTIQNWSNNVYNLVTKRARAEAGATMEWIDGNIGSKVTMKYPAVWMTGEHAKGEVLSVAFAGEDQHQDTGAKMLHLAPNTSSNIVSKSVARGGGRTSYRGLVQVNKGAHGSRSSVKCDALLVDTVSRSDTYPYVDIREDDVTMGHEATVSKVSENQLFYLMSRGLTEDEAMAMVVRGFVEPIAKELPMEYALELNRLIELQMEGAVG”, “not soluble”.
“MSLDLISFSVPGNLLLMGEYTILEEKGLGLAIAINKRAFFSFKKSDSWRFFSKKKKIDDFSLIENRSDFVFKMFAYLSQNCFFNLENFAYDVYIDTSNFFFNDGTKKGFGSSAVVAIGIVCGLFLIHNATNVVEKGEIFKYCLEAYRYSQGGIGSGYDIATSIFGGVIEFEGGFNPKCRQLGAVEFNDFYLMQGLQAIKTTTSICEYNKHRNSILDFILKCNLEMKKLVLNASNSKSALISSLRRAKELGLAIGEAIGVSAALPSSFDHLLGQCDLIKALGAGNETFLVYRPNIEAFNLSKIISIVLENEGIKFESDKEGHHHHHH”: the “soluble on expression in E. coli” value is listed as “not soluble”.
Under “MGSDKIHHHHHHMEKTAIRIPIFMYSLLTPAWEHKIEAQTDGDPFGDSQPMKEYYGPNGKWLLDGVLRHLNISREDEIAILTTSDERYVSTCVSITCFNYAKISRVVGPNTKVVIVIHEFGYVYPDIKNYVCNLKERGIVVIEDCAHIIGCDINGKKIGSFGDYALFSLPKISPARAGGLLRTTKNIKLPVLNSNLSQLTNIGIAGAEKYLPKYKFFNKGRIERAELLKSQVNDLCNIFEPSHPAVPYFLGIVTSEKSKIETSLPWIEFGATLRNDLVYIPTNPLASINLFELITNTIKNGGKICN” stands “not soluble”; under “MSLDAEKQLANITMGLPLSPAADSARSARHALSLIATARPPAFITTIAKEVHRHTALAANTQSQQSIHTTTLARAKGEILRVIEILIEKMPTDVVDLLVEVMDIIMYCLEGSLVKKKGLQECFPAICRFYMVSYYERSHRIAVGARHGSVALYDIRTGKCQTIHGHKGPITAVSFAPDGRYLATYSNTDSHISFWQMNTSLLGSIGMLNSAPQLRCIKTYQVPPVQPASPGSHNALKLARLIWTSNRNVILMAHDGKEHRFMVEGHHHHHH”, “not soluble”; under “MATENPQTWALWLILSEMASDMQEDKKVAKILVLGPPKAGKTTLCTFLADFMEDGDTLKKGEDSGERERKFEFEFTSVYRPTKGVRIQEFETHEFFTEQEQNELGGTRRLEDSEIQLWDVSGDKKYEDCWPAIKENAEGVILVVNPEEHKGSDLQQWFYEFVEKENIDLSCVMVILNEQGAKKTNHEQISGFEILPKLRGVHHVAHHFGSEAMQVKMEVNSFMASVLKMDQRQMGSGVDHGLGYADEQEDDF”, “not soluble”.
The value for “MDAELLEIYNFLAKYPPFNELPEETLTKVTESVEISYYRQDTPIIHFGDHIQDLFVVRSGVVEVYRRKGELYNRLDEGDLFGQMGLLTNNKVRFPVKAIEDTLLYCIPVEVFQEIYDNFDSFADFVEVENSARLRQTISENKDANDLTTSKVKTLLTGDAPTINRGQTIQQAAQLMAQDNISSLLIVDPDFVLDEDDPQSPVLGIITDRDLCTRVLAEGLSPQDDVSTVMTTEVISLDHNAYIYEAMLTMLRYNVHHLPVVKNQLPIGIIETTDIVRYESQNSLLLVSSIFQQQSIEDLATVAEEVKSSFVRLVNEDANSHMVGSAMSVIGRSFKQRLLELAEEELGAPPIPYCFLALGSMGRDEQLLVTDQDNAIILDESYQEEKHGKYFEDLAKFVSDGLDACGYKYCTGDIMATNPMWRMTRSEWEECFADWIDDPNPKALLNASIFFDLDGVYGRLKWAEQLTSFIVRRARKNNRFLACLARNALNRTPPLGFFKDFVMEKDGQHKNSINLKRRGTAPLVDLIRVHALAVGSRAQNSFERLDDIIDAGILPKGRAQDLKDALEFISMVRIRHQATDVELGIEPDNNIEPENLSDFERRNLKDAFQILSNGQNFLKFRYQANKSFK” was “not soluble”.
Under “VIDALRNNNDYEPYNKDSNNQAFNSEEITRFFSIGKYTYPSIFSELNFIINAREAFVSIQTSTIPKTAYAAVNFVETQGEDESYTDSLSTDNKRDIYADFAVIEIPLFLTNHRDYQVFNEFIKPAIETYKQLGNSSFEKKQLDQHKNDNFYMLGYPLVESSIDALILNQRRQYNNSYTEKYTPQTLTKDQRTIDLSREVPTLIQNKTENSTGSQLLVNQSLSSTSEGIIE” stands “not soluble”; under “MTTVLLDSHVAYWWSAEPQRLSMAASQAIEHADELAVAAISWFELAWLAEQERIQLAIPVLSWLQQLAEHVRTVGITPSVAATAVALPSSFPGDPADRLIYATAIEHGWRLVTKDRRLRSHRHPRPVTVW”, “soluble”; under “MKIAIIGYSGSGKSTLANFLGQHYNCEVLHLDKIHFTSNWQERTVDEMTDDISTFMLQSDWIIEGNYSACLYEERMREADCIVYFNFNRVNCLYRAFRRYLTYRGKTRPSMAEG”, “not soluble”.
For “MGGGERYNIPAPQSRNVSKNQQQLNRQKTKEQNSQMKIVHKKKERGHGYNSSAAAWQAMQNGGKNKNFPNNQSWNSSLSGPRLLFKSQANQNYAGAKFSEPPSPSVLPKPPSHWVPVSFNPSDKEIMTFQLKTLLKVQV”, the “soluble on expression in E. coli” value is “not soluble”.
Regarding “MQQRMGAMPMAVLYPQSYLPHSAVPCPAPGYGNMFSGYGAAPVMMMVAGNAPYPVNAHFGHSATPMYFAMDPANSAAPMAVVADAASVCATPKAKLAHSGSGNSLSTQSCCSGGETPSLLSRSAASSTVKQRPHHDVNVWGFALVDQLHPSLQRIPVPLSCLHEPTMGISLYDNNVMSSSTRPCKSSVCLLHAQGLGCAEGSRCRCFHVSSAYLMQCRATSESLCCALHNCYYSQEMLGANCAPHVSGRCYALSLDDASKFPQDGEKPYLINLSLLNLSLTVGLETLPCVNSVYVVSWKKHVCRLSMDGLCKWTKDCGHIHVCRQLTRFLQDAETLSIVKTLQERTRPKSSAELYRDIILSENTLRYVRSVAALSLVAALLEAGDVEALKTLARAKCALLPSQSEALQKLGIALSGSDSTRSVTVSPKLLALLTPKGTN”, the “soluble on expression in E. coli” value is “not soluble”.
“MNDPREILAVDPYNNITSDEEDEQAIARELEFMERKRQALVERLKRKQEFKKPQDPNFEAIEVPQSPTKNRVKVGSHNATQQGTKFEGSNINEVRLSQLQQQPKPPASTTTYFMEKFQNAKKNEDKQIAKFESMMNARVHTFSTDEKKYVPIITNELESFSNLWVKKRYIPEDDLKRALHEIKILRLGKLFAKIRPPKFQEPEYANWATVGLISHKSDIKFTSSEKPVKFFMFTITDFQHTLDVYIFGKKGVERYYNLRLGDVIAILNPEVLPWRPSGRGNFIKSFNLRISHDFKCILEIGSSRDLGWCPIVNKKTHKKCGSPINISLHKCCDYHREVQFRGTSAKRIELNGGYALGAPTKVDSQPSLYKAKGENGFNIIKGTRKRLSEEEERLKKSSHNFTNSNSAKAFFDEKFQNPDMLANLDNKRRKIIETKKSTALSRELGKIMRRRESSGLEDKSVGERQKMKRTTESALQTGLIQRLGFDPTHGKISQVLKSSVSGSEPKNNLLGKKKTVINDLLHYKKEKVILAPSKNEWFKKRSHREEVWQKHFGSKETKETSDGSASDLEII”: the “soluble on expression in E. coli” value is “soluble”.
Regarding “MSLERQTLKQKLSTLIQPLQTAKRGAPLTNRTLSATTCQQIESLVTAIEALNPNLSPLLYSPQLLDGNWWLNYSTAREIRSLDKLPLGLKVGRIYQIINVPNQSFLNQAFVYHPLGLAKGYVKVTAKFEIAKPAGTVLPDKRINVEFLERMISIQKLMGVPTPKLDPAKVVPARSPEGRIPFLEITYLDDDLRIGRGGEGSLFVLSKVSEVTPLEHHHHHH”, the “soluble on expression in E. coli” value is “not soluble”.

The values are drawn from the DeepSol protein solubility set.
